The values below come from the DeepSol protein solubility set.

The data set can be described thus: soluble on expression in E. coli; label from the status in PepcDB or PDB records.
For “MGSDKIHHHHHHMSNHSSSIPELSDNGIRYYQTYNESLSLWPVRCKSFYISTRFGQTHVIASGPEDAPPLVLLHGALFSSTMWYPNIADWSSKYRTYAVDIIGDKNKSIPENVSGTRTDYANWLLDVFDNLGIEKSHMIGLSLGGLHTMNFLLRMPERVKSAAILSPAETFLPFHHDFYKYALGLTASNGVETFLNWMMNDQNVLHPIFVKQFKAGVMWQDGSRNPNPNADGFPYVFTDEELRSARVPILLLLGEHEVIYDPHSALHRASSFVPDIEAEVIKNAGHVLSMEQPTYVNERVMRFFNAETGISR”, the “soluble on expression in E. coli” value is “not soluble”.

As for “MGSDKIHHHHHHMTNAVYTLIVRALSGIVSERAAETLLRAALREQGLTAEGVTAGEMQRVLSGPLLTRLSGVLPPERARAELGNLAAQLQKHYPKAPTLFSSPAATWDETTSTHWEDIDFSADDFEFDDPEYTATPPERQYALGTAAGQEALIQDLGRIPGVQGVMVCRASGEVLRERALSGSRNLSSVIAATALLFQKRALNLMSADMGGQTVCMRPVGAYCVAVVAGPQVNIGRLLAELQQVREAA”, the “soluble on expression in E. coli” value is “not soluble”. The entry for “GAMDPREVILCKDQDGKIGLRLKSIDNGIFVQLVQANSPASLVGLRFGDQVLQINGENCAGWSSDKAHKVLKQAFGEKITMTIRDRPFERTITMHKDSTGHVGFIFKNGKITSIVKDSSAARNGLLTEHNICEINGQNVIGLKDSQIADILSTSGTVVTITIMPAF” is “soluble”; for “EKQSIHRTQLEALDSVITDLETSAQKGISLTEPEIFASLLETCYSLRAIDHGVRVHHLIPPYLLRNNLGISSKLVRLYASCGYAEVAHEVFDRMSKRDSSPFAWNSLISGYAELGQYEDAMALYFQMAEDGVKPDRFTFPRVLKACGGIGSVQIGEAIHRDLVKEGFGYDVYVLNALVVMYAKCGDIVKARNVFDMIPHKDYVSWNSMLTGYLHHGLLHEALDIFRLMVQNGIEPDKVAISSVLARVLSFKHGRQLHGWVIRRGMEWELSVANALIVLYSKRGQLGQACFIFDQMLERDTVSWNAIISAHSKNSNGLKYFEQMHRANAKPDGITFVSVLSLCANTGMVEDGERLFSLMSKEYGIDPKMEHYACMVNLYGRAGMMEEAYSMIVQEMGLEAGPTVWGALLYACYLHGNTDIGEVAAQRLFELEPDNEHNFELLIRIYSKAKRAEDVERVRQMMVDRGLET” it is “soluble”; for “MGSSHHHHHHGGTGENLYFQGGSGMKGVTSFTVYGLVPAADFQRCAEAAAYVNDKYPESYAVIVKLELPRDFAERRAAWASAGHLPSQQQQPTDASFGESGGSATTASTAAAELAAVLVEQHGSDSEPQCLLTAETFLHNIATHTDYKPDATEDYYTARGKRAWRAFLASRGRQYCWMDVSVDGVAVGRVWFELYASVAPLTCKNFCELCRGTTVAMGDTVAHSSVFDPPPAQHIGYKGTTFFRTLKDAWVMGGDVTGAHSGNGGYSCYGRCFPDETYAVPHDAAGILGMCNDGPHTSSSAFYITLRPMSWMNGKYVAFGRVMDGMHVVDAIHAVEARHNQAPKASIVITDCDVLDTSV” it is “soluble”. The result for “MAVGSVATLATEPGEDAFRKLFRFYRQSRPGTADLEGVIDFSAAHAARGKGPGAQKVIKSQLNVSSVSEQNAYRAGLQPVSKWQAYGLKGYPGFIFIPNPFLPGYQWHWVKQCLKLYSQKPNVCNLDKHMSKEETQDLWEQSKEFLRYKEATKRRPRSLLEKLRWVTVGYHYNWDSKKYSADHYTPFPSDLGFLSEQVAAACGFEDFRAEAGILNYYRLDSTLGIHVDRSELDHSKPLLSFSFGQSAIFLLGGLQRDEAPTAMFMHSGDIMIMSGFSRLLNHAVPRVLPNPEGEGLPHCLEAPLPAVLPRDSMVEPCSMEDWQVCASYLKTARVNMTVRQVLATDQNFPLEPIEDEKRDISTEGFCHLDDQNSEVKRARINPHSLEHHHHHH” reads “soluble”; that for “FEDVVGQEHITKTLQNALLQKKFSHAYLFSGPRGTGKTSAAKIFAKAVNCEHAPVDEPCNECAACKGITNGSISDVIEIDAASNNGVDEIRDIRDKVKFAPSAVTYKVYIIDEVHMLSIGAFNALLKTLEEPPEHCIFILATTEPHKIPLTIISRCQRFDFKRITSQAIVGRMNKIVDAEQLQVEEGSLEIIASAADGGMRDALSLLDQAISFSGDILKVEDALLITGAVSQLYIGKLAKSLHDKNVSDALETLNELLQQGKDPAKLIEDMIFYFRDMLLYKTAPGLEGVLEKVKVDETFRELSEQIPAQALYEMIDILNKSHQEMKWTNHPRIFFEVAVVKICQTSHQSAADLPEVDMLMKKIQQLEQEVERLKTTGIKAAAESPKKEAPRVPKGGKSNYKAPVGRIHEILKEATRPDLDLLRNSWGKLLAHLKQQNKVSHAALLNDSEPVAAGSAAFVLKFKYEIHCKMVAEDNNGVRTNLEQILESMLGKRMDLIGVPEAQWGKIREEFLEDHQQANEGSNEPAEEDPLIAEAKKLVGADLIEIKD”, “not soluble”. In the case of “MSLKNLITKLENEERLNQEEANALWDLDLFTLGKYAHKKRTKLHGKKVYFNINRHINPTNICADTCKFCAFSAHRKNPNPYLMTHEEIMKIVDETVKRETKEVHIVSAHNKDTTWQWYLEIFKMIKEKYPNLHVKAMTAAEIDFLHRRFKMSYEEVIEKMLEYGVDSMPGGGAEIFDEEVRKKICHGKVSSENWLKIHKLWHEKSKQSNATMLFGHIEERHHRIDHMLRLRDLQDQTGGFNAFIPLVWQRDKSFIQTDKIMDSEEILKTIAISRLVLDNIKNIKAYWATMTLNLAMVAQEFGANDLDGTIEKESIQSAGGAKSAKGTSLKTFIDMIKTSNLIPVERDSLYNELKTYEGHHHHHH”, the “soluble on expression in E. coli” value is “not soluble”. On to “KILSVGSFGCNFVCDFCQNYDISQRKARSTFAPKEELIRIAMTTEDNIGLAFTYNEPSIWYEYMYDCAKLLKETDEKRSVVFVTNGFLSEEPLKKLLPYVDAMNIDLKSFKESYYKSLCGGRLNPVLETIKMAAKVCHVEVTTLLVSGENDNLDEIEEIAKFLASVNSEIPLHLSRYFPRYKLENPPTDVEFMQEAKKTAEKYLKRVMLGNV”, for which the “soluble on expression in E. coli” value is on record as “not soluble”. With “FLDKPTLLSPEELKAASRGNGEYALYYEGRNGWWQYDERTSRELEDAFSKGKRTSEMLIAGFLYVADLENMGQYRRNEHGRRRKIKRDIIDIPKKGV”, the “soluble on expression in E. coli” value was “soluble”. The entry for “MGSDKIHHHHHHMSSRAFSTVAVTDAFFTLVAPVAKNSARIVIIVNSVSTGKNHPQMVALQQTVQQLGYAHVQLLDVLTDDLAALNTATVIILNGGYEFLLLKNLRETHVLERLRTLALAGKPIYGISAGAILLGPDLDLYVYLYPEDNTEQLASTTAINATTIRIYPHYDVHCEVKPQLPQLITDWEHKTGVTVKRLTNNQGLLVHGSQIQMIDSDS” is “not soluble”. “MKTLMVFDPAMCCSTGVCGTDVDQALVDFSTDVQWLKQCGVQIERFNLAQQPMSFVQNEKVKAFIEASGAEGLPLLLLDGETVMAGRYPKRAELARWFGIPLDKVGLAPG”: the “soluble on expression in E. coli” value is “soluble”. The entry for “MLPEHLVSSHFRLSSPPPEATENSKNLPKGKTKLSDYEPDILISANAAGQHRNVLFEERDRHIKERLYCVAKIETFARLINALQAEGDIDAQTLSKILADKTAMINEKGNAIWLNLITRETDMPLFYSLEDKDERS” is “not soluble”; for “MQRIIKNNEVIDETWHLLPKDTTLDSLSNCDDLIVPLALWREHAHALKARDGGLGVWLDSDEEAEEIGEDVDQFQVIALNFPAFTDGRSFSNARLLRDRYGFKGELRAIGDVLRDQLFYMRRCGFDAFAVRADKDPYDALEGLKDFSVTYQAATDEPLPLFRRR” it is “not soluble”; for “MLHIVKHLEKLPLLSAYLLDGDVVLLTENAVYAAAVHSPYQASINDQNLWLVLYEDLHARGWLEKCDPRISVVTMSDFVDLTVTHDKSITW” it is “not soluble”. As to “MSLRPQAPMTQTPMAQASTSTTTPQKIVLYMATTTSVKDTGLLDVLIPDFEKWAASRGYNIEVRYTAVGTGQALAMAARGDVDVVIVHAPSLEKQYLENGTLKCRDVIAYNFFIIVGPRDDPAGAKSLTATEAFRRIAEAKAPFVSRGDRSGTHLMELSLWRRAIGREPDPKNDTWYISAGAGMGQTLLLANEKSAYTLSDTGTWLRYRDKLPQLDVIVQAAPDLINIYSFSIVKLSNATRLMAQYMKTRGLEVIGNLTINGVSLFTPINKADPKAMEWIKTAIFGPSCVEREGHHHHHH”, the “soluble on expression in E. coli” value is “soluble”. The entry for “MSQSGEQRRYTLGEFFSLAGDERMELYEGTIVLMYPVPYEHEGVVANLIAEFRMALKGSPCLVFGSNLQVVLLFEDEQKGTKNVTVLPDLSIICDRTKLRQGRCYGAPDLVVEVLSPSTARNDRLLKRLYYEKAGVREYWLVDYQHKVMEKYVWQSGAFQLEDVYDAANGAAASTVFPEVRFSVKEIFAFLTS” is “not soluble”; for “GEITSAYFVCREATLQKLAAMQSIDSEQKLSALFEGSSQIISLFDRDSRFVWYNKAAYDKSIFLFGKFLCVGERFDSYLKEQYREGFNANFERVLKGEIVSYTREYTYQDKPFFLEIMLQPVYQKDELVGVSLIGNN” it is “not soluble”; for “MKLSTKLCWCGIKGRLRPQKQQQLHNTNLQMTELKKQKTAEQKTRPQNVGIKGIQIYIPTQCVNQSELEKFDGVSQGKYTIGLGQTNMSFVNDREDIYSMSLTVLSKLIKSYNIDTNKIGRLEVGTETLIDKSKSVKSVLMQLFGENTDVEGIDTLNACYGGTNALFNSLNWIESNAWDGRDAIVVCGDIAIYDKGAARPTGGAGTVAMWIGPDAPIVFDSVRASYMEHAYDFYKPDFTSEYPYVDGHFSLTCYVKALDQVYKSYSKKAISKGLVSDPAGSDALNVLKYFDYNVFHVPTCKLVTKSYGRLLYNDFRANPQLFPEVDAELATRDYDESLTDKNIEKTFVNVAKPFHKERVAQSLIVPTNTGNMYTASVYAAFASLLNYVGSDDLQGKRVGLFSYGSGLAASLYSCKIVGDVQHIIKELDITNKLAKRITETPKDYEAAIELRENAHLKKNFKPQGSIEHLQSGVYYLTNIDDKFRRSYDVKK” it is “soluble”. For the sequence “MGSDKIHHHHHHMMKSIILIVLDGLGDRPGSDLQNRTPLQAAFRPNLNWLASHGINGIMHPISPGIRCGSDTSHMSLLGYDPKVYYPGRGPFEALGLGMDIRPGDLAFRANFATNRDGVIVDRRAGRENKGNEELADAISLDMGEYSFRVKSGVEHRAALVVSGPDLSDMIGDSDPHREGLPPEKIRPTDPSGDRTAEVMNAYLEEARRILSDHRVNKERVKNGRLPGNELLVRSAGKVPAIPSFTEKNRMKGACVVGSPWLKGLCRLLRMDVFDVPGATGTVGSNYRGKIEKAVDLTSSHDFVLVNIKATDVAGHDGNYPLKRDVIEDIDRAMEPLKSIGDHAVICVTGDHSTPCSFKDHSGDPVPIVFYTDGVMNDGVHLFDELSSASGSLRITSYNVMDILMQLAGRSDKFGS”, the “soluble on expression in E. coli” value is listed as “not soluble”.

As for “MKETIIVVHERPDIYDPVFIEGLPGIGLVGKLAAEHLIQELKAKKFAELYSPHFMHQVLIRKGSIVELMKNEFYYWKSPDDEHRDLIIVTGDTQVPPTDSYGHFEVAGKMLDFVQEFGTREIITMGGYQVPELQGEPRVLAAVTHPDLISYYQEKLKDCKVNVMWREDEGGAIVGAAGLLLGIGKLRGMFGISLLGESLGYIVDAKAAKAVLTAVAKILGLEIDMTALEERAKETEEILRKVEEMQRTIMEQQLPRPTHEEEDRGYL”, the “soluble on expression in E. coli” value is given as “not soluble”. As for “MSLTEWLTIFDSERNTLGKKLRDEVHRDGNWHETFHCWFVEKDAEDMFLYFQLRSKNKKEAPLIWDITSAGHIMHDEDVQIGGLREIEEELGLSFQTTDLAYKGIFTIDYEISNLTDREFCHMYFHNVINPLPFAPGEEVDDVMKIHATSFLQLLKREISSFTATSVLSNKSITITFSDIYPYDFAYYEFVVEQGKELLKNNDEGHHHHHH”, the “soluble on expression in E. coli” value is recorded as “soluble”.
